The values below come from PMC11270187 (2024).

The target of test [1] is T1, HLA-DR on BJAB cells (human (endogenous in BJAB), UniProt P01903 26-254; P01911 30-266). Description: FACS.
Test [2] deals with T1, HLA-DR on BJAB cells. As to the kind of experiment: FACS. This is another data set of the same source.
The target of test [3] is T2, recombinant HLA-DR (uncleaved) (human, UniProt P01903 28-206; P01911 30-219). As to the kind of experiment: BLI; apparent.
The target in test [4] is T1, HLA-DR on BJAB cells. Description: FACS. This is another data set of the same source.
In test [5] the target is T2, recombinant HLA-DR (uncleaved). Description: BLI; apparent. This is another data set of the same source.
For test [6] the target is unchanged. As to the kind of experiment: BLI; apparent. The source holds these as a separate data set.

Changes are numbered by the printed parent chain. In names and notes the source's numbering stands. Where two headings read alike, the source gives them in different places.

B1: humanized 44H10 version 17 IgG (antibody, V domains shown)
VH: QVTLKESGPVLVKPTETLTLTCTVSGFSLTSYGVHWIRQPPGKALEWLAVIWAGGSISYSTSLMSRLTISKDTSKSQVVLTMTNMDPVDTATYYCARAYGDYVHYAMDYWGQGTLVTVSS
VL: DIQMTQSPSSLSASVGDRVTITCRASQEISGYLTWLQQKPGKAPKLLIYAASTLDSGVPSRFSGSGSGTDFTLTISSLQPEDFATYYCLQYTNYPLTFGQGTKLEIK
As for B1, the EC50 with HLA-DR on BJAB cells [1] stood at 43 nM.

B2: humanized 44H10 version 22 IgG (antibody, V domains shown)
VH: QVQLQESGPGLVKPSETLSLTCTVSGFSLTSYGVHWIRQPPGKGLEWIGVIWAGGSINYNSALMSRVTISKDTSKNQVSLKLSSVTAADTAVYYCARAYGDYVHYAMDYWGQGTLVTVSS
VL: B1 VL with S60K, G66R
In turn, B2 gave an EC50 with HLA-DR on BJAB cells [2] of 1.7 nM. For the same molecule, the Kd in test [3] was 29 nM.

B3: humanized 44H10 version 21 IgG (V17 with light chain S60K and G66R back-mutations) (antibody, V domains shown)
VH: B1 VH
VL: B1 VL with S60K, G66R
For the molecule B3, the 50% effective concentration (EC50) in the test with HLA-DR on BJAB cells [4] is 14 nM. Moreover, the Kd in test [5] came out at 95 nM.

B4: parental 44H10 IgG (antibody, V domains shown)
VH: QVQLKESGPGLVAPSQSLSITCTVSGFSLTSYGVHWVRQPPGKGLEWLGVIWAGGSINYNSALMSRLSISKDNFKSQVFLKMSSLQTDDTAMYYCARAYGDYVHYAMDYWGQGTSVTASS
VL: DIQMTQSPSSLSASLGQRVSLTCRASQEISGYLTWLQQKPDGTIKRLVYAASTLDSGVPKRFSGSRSGSDYSLTISSLESEDFADYYCLQYTNYPLTFGAGTKLELK
B4: the EC50 is 0.8 nM in the test with HLA-DR on BJAB cells [1] and 1 nM in the test with HLA-DR on BJAB cells [2]. The Kd in test [6] was found to be 2.2 nM.
